The record followed here is a protein production outcome set (Wang et al. 2014).

This series can be described thus: label from the status in PepcDB records.
For the sequence “MQKIIDDSLELAKKLQDSISNHLSDQEKAFHSKMQKLLNNPENKVMLIELMDRSFRCLDNKARFEMIEHVLDKYKSREIFSPFEKVLLMGFLSFGKMLPDMSVPFFVNKIRSDTKAMVLDQEESQLKERILKRKNEKIILNVNFIGEEVLGEEEANARFEKYSQALKSNYIQYISIKITTIFSQINILDFEYSKKEIVKRLDALYALALEEEKKQGMPKFINLDMEEFRDLELTVESFMESIAKFDLNAGIVLQAYIPDSYEYLKKLHAFSKERVLKGLKPIKIRFVKGANMESEETIASVKDWALPTFSNKQDTDSNYNKMLDFVLEGDNYKYIHIGAASHNIFEIAYVYTRIHAINDPVVLEHFSFEMLEGMSLQASQELKEMHKLILYAPVCDEAHFNNAIAYLVRRLDENTSSDNFMKAFFNLKVGTSEWKDQEQRFLNSLKGIATLDNATHRTQDRNAKQSGHTTYPNHSFKNESDTDFILKANREWAKKVREKMRNAPILELYPEMDGRFEDPNLTPLEVFDRIHHKKIASVHLADKEAILKALEVAKSDKSRFSQKSFTEIHALMSQTAQLFRERRGDLIGISALEVGKTFAETDAEVSEAIDFLEFYPYSLRVLQEQNTKTQFTPKGVGVVIAPWNFPVGISVGTIAAPLATGNRVIYKPSSLSSVTGYKLCECFWDAGVPRDALIYLPSKGSDISEHLLRDESIQFAILTGGEDTAYKMLKANPTLALSAETGGKNATIVSKMADRDQAIKNVIHSAFSNSGQKCSATSLLVLEKEVYEDENFKKTLIDATLSLSVGDPFDFKNKIGALADKPNEKVIKAIDELKSYENYEIPVSFVNDNPYLMKPSIKYGTKKGDFTHQTELFTPILSVMEAKDLDEAIEIANSTGYGLTSALESLDEREWEYYLERIEAGNIYINKPTTGAIVLRQPFGGVKKSAVGFGRKVGIFNYITQFVNICQEEEDENALKNPLSEALENLTQKGYDEHTHELKRAIFMAKSYAYHYKHEFSQTKDYVKIRGEDNLFSYTKVKSVGYRITEKDTLSDMLGVALACLISQIPLTLSIENERTNKDLTFFLECLKALQASAPIVYESLQKFSEKLNTFNRVRYLKSDLDLLHEQASALGMVLATAKPCLNGRFELLYYHLERSVSISYHRYGNLGSRVLRQPTCHKSCCAEK”, the protein production entry was “failed”.
In the case of “FEDFNTNPYQPSKVPASNLLSTMFNVYACPQQNACQEINCMWASFSGQVTATANWSFGKNIFAYYNASEGHNDSSWGRLYGYIYPSFFLVENSTEKKGVIYAMAQLTRVYGMQLLASLQGPIPYTQMKAGETEAPYDNEQTVWHAMFDDLDNAITILKSAATFGVNQDLAVVDQFYKGDCSKWLKFANTLKLRMAIRISGVEPEYAQTKAQEAVLGGVMESVGDSSYDTTNGGINENGYAIVSGWPEVRANACLVSYMNGYNDPRRPAYFTPQTQTAAGGYVGVRSGSAEIPEPTVYANYSKLFIATDKTLPQPVMYAAEAAFLRAEGALKGWNMGGDAKTFYEKGVRLSFEEFGVSGADDYLADATSIPGNYVDNLIAGHTGNNYTNQSSITIKWEDGADDAKKLERVLTQKWIACYPDPMNGWADFRRTGYPRIFPATESMNADCNTGRGQRRLRFTRSEYNNNKANVEAAVSMLSNGKDSNGTDLWWAMKENGTY” it was “not failed”.
For “MKYAITGATGHLGQQIVAAMRPLVATTELYLGVHTLSKAQVYQQQGLHIAAIDYQQPEQLRAFFQDSDVLIYIPSKSHDSYSRVQEFENVLAAVQQANVHHFLVMGFIADQVNNPFALSAFYGYVPRRLAGSDINYTIVRNALYADPLVPYLPELIERHNVVYPMADQALSFISQADSAAAFAKVATTPDLLQRGRIYTLTQSRAYTMPELATVLSQVSGQLIGYRPVSLQAFSNMYNQNGEGPMLASMYAGGARGLLATVSDDYQLIMDRPAQSLLDYLQTNYQKS”, the protein production result is given as “failed”.
To “MIIWQPDQKINNGRFIIQGKPLGEGGFGITYKALEPSTGKLYAIKTLNQQMQLLRSDFAEQQIKFINEALTIKGFDHPHILKVHEVIQEGELFGVVMEYIDGVTLFEYVQDKGQLSETEALLYVNQIGQALELIHQKQHLHRDIKPENILLRHTTRKAILIDFGLAREFTIDQTGSMTNAKTEGYAPPEQYERRGRFDAYVDVYALAATLYNLLTGKVPLPVNFRKAGIPLPPPKQFNSQISQRVNDAILKGMELEPQERTPTVLEFRKNLGLVSSGGAEVQLKSSVGMDYRQLRDLLAVGKWKEADAETARVMLAAMKREKEGWLREEDTWFFPCEDLRTIDQLWVKYSNGRFGFSVQKRIYQSLGGKRSYDEEIWRAFGDKVGWRKGGEWLYYKDITFDITAPEAHLPCYTLTIPYTSRGEVGYTDYSPGFGLWWWWGGGLFSRVETCKM” belongs “failed”.
